The record followed here is PMC6918743, “Mammalian TRP ion channels are insensitive to membrane stretch” (Journal of Cell Science, 2019).

This data set deals with the molecule itself. Kind of data set: SEC; Superose 6 10/300 GL column; 150 mM NaCl, 20 mM HEPES, 2 mM TCEP (pH 7.4); DDM-mTRPC6 protein complex; peak assigned to the tetramer.

By stoichiometry N is commonly meant the number of molecules, sites or subunits per partner or assembly.

B1: Δ94 mTRPC6 (94 aa N-terminally truncated mouse TRPC6) (domain or fragment, UniProt Q61143 95-930, looked up)
chain: SIEEERFLDAAEYGNIPVVRKMLEECHSLNVNCVDYMGQNALQLAVANEHLEITELLLKKENLSRVGDALLLAISKGYVRIVEAILNHPAFAEGKRLATSPSQSELQQDDFYAYDEDGTRFSHDVTPIILAAHCQEYEIVHTLLRKGARIERPHDYFCKCTECSQKQKHDSFSHSRSRINAYKGLASPAYLSLSSEDPVMTALELSNELAVLANIEKEFKNDYRKLSMQCKDFVVGLLDLCRNTEEVEAILNGDAETRQPGDFGRPNLSRLKLAIKYEVKKFVAHPNCQQQLLSIWYENLSGLRQQTMAVKFLVVLAVAIGLPFLALIYWCAPCSKMGKILRGPFMKFVAHAASFTIFLGLLVMNAADRFEGTKLLPNETSTDNARQLFRMKTSCFSWMEMLIISWVIGMIWAECKEIWTQGPKEYLFELWNMLDFGMLAIFAASFIARFMAFWHASKAQSIIDANDTLKDLTKVTLGDNVKYYNLARIKWDPTDPQIISEGLYAIAVVLSFSRIAYILPANESFGPLQISLGRTVKDIFKFMVIFIMVFVAFMIGMFNLYSYYIGAKQNEAFTTVEESFKTLFWAIFGLSEVKSVVINYNHKFIENIGYVLYGVYNVTMVIVLLNMLIAMINSSFQEIEDDADVEWKFARAKLWFSYFEEGRTLPVPFNLVPSPKSLLYLLLKFKKWMCELIQGQKQGFQEDAEMNKRNEEKKFGISGSHEDLSKFSLDKNQLAHNKQSSTRSSEDYHLNSFSNPPRQYQKIMKRLIKRYVLQAQIDKESDEVNEGELKEIKQDISSLRYELLEEKSQNTEDLAELIRKLGERLSLEPKLEESRR
notes: TRPC6, Mus musculus, N-terminal truncation of 94 aa (Δ94); The limit 95 follows from the printed '94 aa truncated' N-terminal truncation; Tags removed with ProTEV Plus protease; solubilised in DDM; also called Δ94 TRPC6; N-terminal truncation (Δ94) of TRPC6; source: Sf9 (baculovirus, Bac-to-Bac), purified (amylose resin, Superose 6); not shown: His8, N-terminal, cleaved; MBP, N-terminal, cleaved
For B1, the “stoichiometry N” value came out at 4.

B2: mouse TRPC6, full-length (WT) protein (natural protein, UniProt Q61143 1-930, looked up)
chain: MSQSPRFVTRRGGSLKAAPGAGTRRNESQDYLLMDELGDDGYPQLPLPPYGYYPSFRGNENRLTHRRQTILREKGRRLANRGPAYMFNDHSTSLSIEEERFLDAAEYGNIPVVRKMLEECHSLNVNCVDYMGQNALQLAVANEHLEITELLLKKENLSRVGDALLLAISKGYVRIVEAILNHPAFAEGKRLATSPSQSELQQDDFYAYDEDGTRFSHDVTPIILAAHCQEYEIVHTLLRKGARIERPHDYFCKCTECSQKQKHDSFSHSRSRINAYKGLASPAYLSLSSEDPVMTALELSNELAVLANIEKEFKNDYRKLSMQCKDFVVGLLDLCRNTEEVEAILNGDAETRQPGDFGRPNLSRLKLAIKYEVKKFVAHPNCQQQLLSIWYENLSGLRQQTMAVKFLVVLAVAIGLPFLALIYWCAPCSKMGKILRGPFMKFVAHAASFTIFLGLLVMNAADRFEGTKLLPNETSTDNARQLFRMKTSCFSWMEMLIISWVIGMIWAECKEIWTQGPKEYLFELWNMLDFGMLAIFAASFIARFMAFWHASKAQSIIDANDTLKDLTKVTLGDNVKYYNLARIKWDPTDPQIISEGLYAIAVVLSFSRIAYILPANESFGPLQISLGRTVKDIFKFMVIFIMVFVAFMIGMFNLYSYYIGAKQNEAFTTVEESFKTLFWAIFGLSEVKSVVINYNHKFIENIGYVLYGVYNVTMVIVLLNMLIAMINSSFQEIEDDADVEWKFARAKLWFSYFEEGRTLPVPFNLVPSPKSLLYLLLKFKKWMCELIQGQKQGFQEDAEMNKRNEEKKFGISGSHEDLSKFSLDKNQLAHNKQSSTRSSEDYHLNSFSNPPRQYQKIMKRLIKRYVLQAQIDKESDEVNEGELKEIKQDISSLRYELLEEKSQNTEDLAELIRKLGERLSLEPKLEESRR
notes: TRPC6, Mus musculus, full-length (WT) protein; Tags removed with ProTEV Plus protease; solubilised in DDM; also called mTRPC6; WT TRPC6; source: Sf9 (baculovirus, Bac-to-Bac), purified (amylose resin, Superose 6); not shown: His8, N-terminal, cleaved; MBP, N-terminal, cleaved
Regarding B2, the “stoichiometry N” value was found to be 4.
